Data on three proteins can be found in patent US20260248897.

Data set [1] concerns the target RBD of SARS-CoV-2 (B lineage), P0DTC2.
Another data set has as its target T1, RBD of hCoV-229E, P15423.
T1 chain: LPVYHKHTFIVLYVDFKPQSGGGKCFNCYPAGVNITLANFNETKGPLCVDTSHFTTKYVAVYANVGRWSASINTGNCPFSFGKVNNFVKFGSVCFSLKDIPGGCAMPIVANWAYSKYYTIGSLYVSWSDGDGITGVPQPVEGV

B1: gene recombinant of human ERp57 (protein disulfide-isomerase like protein ERp57) (protein)
chain: MGSSHHHHHHSSGLVPRGSHMLESDVLELTDDNFESRISDTGSAGLMLVEFFAPWCGHCKRLAPEYEAAATRLKGIVPLAKVDCTANTNTCNKYGVSGYPTLKIFRDGEEAGAYDGPRTADGIVSHLKKQAGPASVPLRTEEEFKKFISDKDASIVGFFDDSFSEAHSEFLKAASNLRDNYRFAHTNVESLVNEYDDNGEGIILFRPSHLTNKFEDKTVAYTEQKMTSGKIKKFIQENIFGICPHMTEDNKDLIQGKDLLIAYYDVDYEKNAKGSNYWRNRVMMVAKKFLDAGHKLNFAVASRKTFSHELSDFGLESTAGEIPVVAIRTAKGEKFVMQEEFSRDGKALERFLQDYFDGNLKRYLKSEPIPESNDGPVKVVVAENFDEIVNNENKDVLIEFYAPWCGHCKNLEPKYKELGEKLSKDPNIVIAKMDATANDVPSPYEVRGFPTIYFSPANKKLNPKKYEGGRELSDFISYLQREATNPPVIQEEKPKKKKKAQEDL
As for B1, the “disulfide bond cleavage activity (remaining rate of native RBD; maleimide-PEG 2k, SDS-PAGE)” value in data set [1] is “The order of the disulfide bond cleavage activity of the RBD from highest to lowest was PDI, ERp46, P5, ERp72, and ERp57”; in the data set with RBD of hCoV-229E, P15423, “The order of the disulfide bond cleavage activity of the RBD of hCoV-229E from highest to lowest was PDI, ERp46, P5, Erp57, and ERp72”.

B2: gene recombinant of human ERp72 (protein disulfide isomerase family A member 4) (protein)
chain: MGSSHHHHHHSSGLVPRGSHEGPDEDSSNRENAIEDEEEEEEEDDDEEEDDLEVKEENGVLVLNDANFDNFVADKDTVLLEFYAPWCGHCKQFAPEYEKIANILKDKDPPIPVAKIDATSASVLASRFDVSGYPTIKILKKGQAVDYEGSRTQEEIVAKVREVSQPDWTPPPEVTLVLTKENFDEVVNDADIILVEFYAPWCGHCKKLAPEYEKAAKELSKRSPPIPLAKVDATAETDLAKRFDVSGYPTLKIFRKGRPYDYNGPREKYGIVDYMIEQSGPPSKEILTLKQVQEFLKDGDDVIIIGVFKGESDPAYQQYQDAANNLREDYKFHHTFSTEIAKFLKVSQGQLVVMQPEKFQSKYEPRSHMMDVQGSTQDSAIKDFVLKYALPLVGHRKVSNDAKRYTRRPLVVVYYSVDFSFDYRAATQFWRSKVLEVAKDFPEYTFAIADEEDYAGEVKDLGLSESGEDVNAAILDESGKKFAMEPEEFDSDTLREFVTAFKKGKLKPVIKSQPVPKNNKGPVKVVVGKTFDSIVMDPKKDVLIEFYAPWCGHCKQLEPVYNSLAKKYKGQKGLVIAKMDATANDVPSDRYKVEGFPTIYFAPSGDKKNPVKFEGGDRDLEHLSKFIEEHATKLSRTKEEL
Take B2: the “disulfide bond cleavage activity (remaining rate of native RBD; maleimide-PEG 2k, SDS-PAGE)” value in data set [1] was “The order of the disulfide bond cleavage activity of the RBD from highest to lowest was PDI, ERp46, P5, ERp72, and ERp57”; with RBD of hCoV-229E, P15423 it was “The order of the disulfide bond cleavage activity of the RBD of hCoV-229E from highest to lowest was PDI, ERp46, P5, Erp57, and ERp72”.

B3: gene recombinant of human P5 (protein disulfide isomerase family A member 6) (protein)
chain: MGSSHHHHHHSSGLVPRGSHMLYSSSDDVIELTPSNFNREVIQSDSLWLVEFYAPWCGHCQRLTPEWKKAATALKDVVKVGAVDADKHHSLGGQYGVQGFPTIKIFGSNKNRPEDYQGGRTGEAIVDAALSALRQLVKDRLGGRSGGYSSGKQGRSDSSSKKDVIELTDDSFDKNVLDSEDVWMVEFYAPWCGHCKNLEPEWAAAASEVKEQTKGKVKLAAVDATVNQVLASRYGIRGFPTIKIFQKGESPVDYDGGRTRSDIVSRALDLFSDNAPPPELLEIINEDIAKRTCEEHQLCVVAVLPHILDTGAAGRNSYLEVLLKLADKYKKKMWGWLWTEAGAQSELETALGIGGFGYPAMAAINARKMKFALLKGSFSEQGINEFLRELSFGRGSTAPVGGGAFPTIVEREPWDGRDGELPVEDDIDLSDVELDDLGKDEL
On to B3, for which the “disulfide bond cleavage activity (remaining rate of native RBD; maleimide-PEG 2k, SDS-PAGE)” value in data set [1] is “The order of the disulfide bond cleavage activity of the RBD from highest to lowest was PDI, ERp46, P5, ERp72, and ERp57”; with RBD of hCoV-229E, P15423, “The order of the disulfide bond cleavage activity of the RBD of hCoV-229E from highest to lowest was PDI, ERp46, P5, Erp57, and ERp72”.
